Values quoted from earlier work as cited in paper PMC6200408.

Biological target: cubilin (Homo sapiens) (UniProt O60494)
Sequence of UniProt O60494 (O60494 36-3623): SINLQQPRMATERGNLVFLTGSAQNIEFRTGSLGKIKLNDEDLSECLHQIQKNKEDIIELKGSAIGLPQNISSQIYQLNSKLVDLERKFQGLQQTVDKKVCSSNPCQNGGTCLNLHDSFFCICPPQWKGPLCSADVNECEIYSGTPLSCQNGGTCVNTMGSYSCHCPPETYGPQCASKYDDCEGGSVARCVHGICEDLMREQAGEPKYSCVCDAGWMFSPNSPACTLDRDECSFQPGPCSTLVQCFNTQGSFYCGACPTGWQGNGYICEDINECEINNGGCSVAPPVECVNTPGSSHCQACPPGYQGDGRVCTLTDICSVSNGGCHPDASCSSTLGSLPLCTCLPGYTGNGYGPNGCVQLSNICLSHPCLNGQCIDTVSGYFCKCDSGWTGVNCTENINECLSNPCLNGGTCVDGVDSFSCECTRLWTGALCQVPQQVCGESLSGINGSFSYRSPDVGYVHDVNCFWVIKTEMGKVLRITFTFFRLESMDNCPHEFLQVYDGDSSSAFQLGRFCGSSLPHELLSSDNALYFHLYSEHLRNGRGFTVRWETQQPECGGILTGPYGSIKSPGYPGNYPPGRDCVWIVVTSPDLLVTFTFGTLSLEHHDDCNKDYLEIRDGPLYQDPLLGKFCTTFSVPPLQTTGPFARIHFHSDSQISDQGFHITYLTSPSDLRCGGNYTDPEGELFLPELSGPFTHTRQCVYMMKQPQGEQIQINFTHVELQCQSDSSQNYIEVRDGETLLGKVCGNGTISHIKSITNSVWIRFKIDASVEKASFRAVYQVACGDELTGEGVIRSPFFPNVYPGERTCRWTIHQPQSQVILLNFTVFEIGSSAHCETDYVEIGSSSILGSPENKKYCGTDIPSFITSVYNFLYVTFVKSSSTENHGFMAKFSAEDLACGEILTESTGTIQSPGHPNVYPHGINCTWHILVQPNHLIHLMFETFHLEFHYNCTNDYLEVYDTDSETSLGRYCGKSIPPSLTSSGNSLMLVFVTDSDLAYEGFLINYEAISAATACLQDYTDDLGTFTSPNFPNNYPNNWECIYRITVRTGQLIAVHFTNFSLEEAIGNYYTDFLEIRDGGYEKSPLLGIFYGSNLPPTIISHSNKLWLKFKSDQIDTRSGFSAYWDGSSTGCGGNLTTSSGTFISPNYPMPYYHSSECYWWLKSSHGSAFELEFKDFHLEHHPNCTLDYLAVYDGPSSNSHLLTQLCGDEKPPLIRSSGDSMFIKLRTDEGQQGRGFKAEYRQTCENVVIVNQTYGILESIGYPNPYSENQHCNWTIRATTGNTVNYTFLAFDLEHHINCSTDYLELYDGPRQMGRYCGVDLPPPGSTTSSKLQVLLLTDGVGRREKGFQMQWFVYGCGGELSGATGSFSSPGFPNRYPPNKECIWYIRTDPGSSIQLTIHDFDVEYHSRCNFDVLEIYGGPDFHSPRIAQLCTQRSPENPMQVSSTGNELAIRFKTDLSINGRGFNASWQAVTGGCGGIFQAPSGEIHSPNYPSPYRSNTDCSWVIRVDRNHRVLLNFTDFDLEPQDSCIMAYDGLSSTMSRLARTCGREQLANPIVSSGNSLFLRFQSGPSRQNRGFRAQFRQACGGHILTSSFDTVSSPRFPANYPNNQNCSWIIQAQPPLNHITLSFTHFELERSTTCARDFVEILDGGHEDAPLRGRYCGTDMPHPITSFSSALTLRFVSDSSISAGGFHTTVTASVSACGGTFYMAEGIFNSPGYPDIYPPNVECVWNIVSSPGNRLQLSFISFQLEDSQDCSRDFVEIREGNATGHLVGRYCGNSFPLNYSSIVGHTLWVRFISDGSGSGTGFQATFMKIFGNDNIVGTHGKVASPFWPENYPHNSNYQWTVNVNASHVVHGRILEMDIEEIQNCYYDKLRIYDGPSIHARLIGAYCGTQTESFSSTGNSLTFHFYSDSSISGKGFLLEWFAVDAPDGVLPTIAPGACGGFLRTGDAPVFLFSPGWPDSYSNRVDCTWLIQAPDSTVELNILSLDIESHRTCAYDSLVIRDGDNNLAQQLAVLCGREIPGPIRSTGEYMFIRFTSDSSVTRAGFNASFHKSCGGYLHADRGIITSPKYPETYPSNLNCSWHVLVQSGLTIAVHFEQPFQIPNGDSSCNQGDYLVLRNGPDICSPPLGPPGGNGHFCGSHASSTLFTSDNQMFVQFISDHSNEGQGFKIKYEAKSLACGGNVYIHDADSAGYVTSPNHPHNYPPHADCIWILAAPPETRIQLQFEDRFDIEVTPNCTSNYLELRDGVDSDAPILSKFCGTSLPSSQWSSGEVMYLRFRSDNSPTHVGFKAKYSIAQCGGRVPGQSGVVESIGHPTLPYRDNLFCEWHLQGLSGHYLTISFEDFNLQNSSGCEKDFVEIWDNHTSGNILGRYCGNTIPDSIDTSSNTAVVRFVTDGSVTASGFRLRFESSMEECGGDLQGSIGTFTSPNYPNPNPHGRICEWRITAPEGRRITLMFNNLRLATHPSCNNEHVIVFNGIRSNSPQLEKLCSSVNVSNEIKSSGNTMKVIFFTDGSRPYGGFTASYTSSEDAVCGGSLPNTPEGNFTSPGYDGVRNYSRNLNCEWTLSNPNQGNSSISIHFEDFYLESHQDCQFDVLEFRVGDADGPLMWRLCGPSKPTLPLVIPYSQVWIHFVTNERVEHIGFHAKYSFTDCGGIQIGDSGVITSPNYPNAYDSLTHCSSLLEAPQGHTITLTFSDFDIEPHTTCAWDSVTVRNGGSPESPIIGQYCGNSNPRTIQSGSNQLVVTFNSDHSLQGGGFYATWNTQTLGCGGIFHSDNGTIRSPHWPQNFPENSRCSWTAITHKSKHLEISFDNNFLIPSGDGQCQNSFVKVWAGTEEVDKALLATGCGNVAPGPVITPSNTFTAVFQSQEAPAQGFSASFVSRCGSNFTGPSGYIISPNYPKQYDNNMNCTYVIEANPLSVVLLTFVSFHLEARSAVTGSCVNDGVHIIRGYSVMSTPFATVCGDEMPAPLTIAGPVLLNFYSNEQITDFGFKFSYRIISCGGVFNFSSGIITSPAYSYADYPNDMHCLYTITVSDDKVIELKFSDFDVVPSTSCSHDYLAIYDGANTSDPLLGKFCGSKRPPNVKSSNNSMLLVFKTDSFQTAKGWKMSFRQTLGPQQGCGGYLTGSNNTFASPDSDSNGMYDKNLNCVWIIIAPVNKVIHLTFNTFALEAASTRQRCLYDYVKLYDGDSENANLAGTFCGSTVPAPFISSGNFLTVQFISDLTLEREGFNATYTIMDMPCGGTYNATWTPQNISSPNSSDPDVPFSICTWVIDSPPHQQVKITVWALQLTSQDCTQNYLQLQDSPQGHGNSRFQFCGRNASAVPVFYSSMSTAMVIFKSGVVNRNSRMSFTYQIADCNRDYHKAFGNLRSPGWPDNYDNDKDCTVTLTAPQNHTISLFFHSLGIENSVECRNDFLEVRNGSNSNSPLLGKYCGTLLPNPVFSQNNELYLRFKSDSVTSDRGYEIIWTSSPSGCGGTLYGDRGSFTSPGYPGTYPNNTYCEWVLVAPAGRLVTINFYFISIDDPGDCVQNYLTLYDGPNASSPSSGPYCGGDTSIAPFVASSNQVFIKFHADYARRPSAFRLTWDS

Kd: 0.6 pM
Substance: albumin (from UniProt P02768)
